{"source": "IntAct's records for PubMed 12649160", "parents": {"B1": {"name": "Fanconi anemia group C protein (Homo sapiens), Q00597 (parent)", "chain": "MAQDSVDLSCDYQFWMQKLSVWDQASTLETQQDTCLHVAQFQEFLRKMYEALKEMDSNTVIERFPTIGQLLAKACWNPFILAYDESQKILIWCLCCLINKEPQNSGQSKLNSWIQGVLSHILSALRFDKEVALFTQGLGYAPIDYYPGLLKNMVLSLASELRENHLNGFNTQRRMAPERVASLSRVCVPLITLTDVDPLVEALLICHGREPQEILQPEFFEAVNEAILLKKISLPMSAVVCLWLRHLPSLEKAMLHLFEKLISSERNCLRRIECFIKDSSLPQAACHPAIFRVVDEMFRCALLETDGALEIIATIQVFTQCFVEALEKASKQLRFALKTYFPYTSPSLAMVLLQDPQDIPRGHWLQTLKHISELLREAVEDQTHGSCGGPFESWFLFIHFGGWAEMVAEQLLMSAAEPPTALLWLLAFYYGPRDGRQQRAQTMVQVKAVLGHLLAMSRSSSLSAQDLQTVAGQGTDTDLRAPAQQLIRHLLLNFLLWAPGGHTIAWDVITLMAHTAEITHEIIGFLDQTLYRWNRLGIESPRSEKLARELLKELRTQV", "partner": "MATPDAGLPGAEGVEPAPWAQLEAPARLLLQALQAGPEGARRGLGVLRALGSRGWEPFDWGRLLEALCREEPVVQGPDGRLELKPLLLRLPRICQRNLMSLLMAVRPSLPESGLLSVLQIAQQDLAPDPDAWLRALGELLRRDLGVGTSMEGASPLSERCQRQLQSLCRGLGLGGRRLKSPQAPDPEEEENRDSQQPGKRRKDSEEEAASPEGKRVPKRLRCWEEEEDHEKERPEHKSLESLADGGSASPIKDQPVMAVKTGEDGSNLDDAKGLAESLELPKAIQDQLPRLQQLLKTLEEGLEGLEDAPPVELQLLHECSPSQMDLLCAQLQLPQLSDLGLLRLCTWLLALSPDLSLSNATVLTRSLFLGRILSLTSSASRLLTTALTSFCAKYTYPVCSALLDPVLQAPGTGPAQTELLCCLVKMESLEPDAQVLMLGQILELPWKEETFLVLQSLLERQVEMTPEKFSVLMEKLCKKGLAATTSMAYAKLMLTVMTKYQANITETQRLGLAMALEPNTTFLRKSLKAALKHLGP"}, "B2": {"name": "Fanconi anemia group G protein (Homo sapiens), O15287 (parent)", "chain": "MSRQTTSVGSSCLDLWREKNDRLVRQAKVAQNSGLTLRRQQLAQDALEGLRGLLHSLQGLPAAVPVLPLELTVTCNFIILRASLAQGFTEDQAQDIQRSLERVLETQEQQGPRLEQGLRELWDSVLRASCLLPELLSALHRLVGLQAALWLSADRLGDLALLLETLNGSQSGASKDLLLLLKTWSPPAEELDAPLTLQDAQGLKDVLLTAFAYRQGLQELITGNPDKALSSLHEAASGLCPRPVLVQVYTALGSCHRKMGNPQRALLYLVAALKEGSAWGPPLLEASRLYQQLGDTTAELESLELLVEALNVPCSSKAPQFLIEVELLLPPPDLASPLHCGTQSQTKHILASRCLQTGRAGDAAEHYLDLLALLLDSSEPRFSPPPSPPGPCMPEVFLEAAVALIQAGRAQDALTLCEELLSRTSSLLPKMSRLWEDARKGTKELPYCPLWVSATHLLQGQAWVQLGAQKVAISEFSRCLELLFRATPEEKEQGAAFNCEQGCKSDAALQQLRAAALISRGLEWVASGQDTKALQDFLLSVQMCPGNRDTYFHLLQTLKRLDRRDEATALWWRLEAQTKGSHEDALWSLPLYLESYLSWIRPSDRDAFLEEFRTSLPKSCDL", "partner": "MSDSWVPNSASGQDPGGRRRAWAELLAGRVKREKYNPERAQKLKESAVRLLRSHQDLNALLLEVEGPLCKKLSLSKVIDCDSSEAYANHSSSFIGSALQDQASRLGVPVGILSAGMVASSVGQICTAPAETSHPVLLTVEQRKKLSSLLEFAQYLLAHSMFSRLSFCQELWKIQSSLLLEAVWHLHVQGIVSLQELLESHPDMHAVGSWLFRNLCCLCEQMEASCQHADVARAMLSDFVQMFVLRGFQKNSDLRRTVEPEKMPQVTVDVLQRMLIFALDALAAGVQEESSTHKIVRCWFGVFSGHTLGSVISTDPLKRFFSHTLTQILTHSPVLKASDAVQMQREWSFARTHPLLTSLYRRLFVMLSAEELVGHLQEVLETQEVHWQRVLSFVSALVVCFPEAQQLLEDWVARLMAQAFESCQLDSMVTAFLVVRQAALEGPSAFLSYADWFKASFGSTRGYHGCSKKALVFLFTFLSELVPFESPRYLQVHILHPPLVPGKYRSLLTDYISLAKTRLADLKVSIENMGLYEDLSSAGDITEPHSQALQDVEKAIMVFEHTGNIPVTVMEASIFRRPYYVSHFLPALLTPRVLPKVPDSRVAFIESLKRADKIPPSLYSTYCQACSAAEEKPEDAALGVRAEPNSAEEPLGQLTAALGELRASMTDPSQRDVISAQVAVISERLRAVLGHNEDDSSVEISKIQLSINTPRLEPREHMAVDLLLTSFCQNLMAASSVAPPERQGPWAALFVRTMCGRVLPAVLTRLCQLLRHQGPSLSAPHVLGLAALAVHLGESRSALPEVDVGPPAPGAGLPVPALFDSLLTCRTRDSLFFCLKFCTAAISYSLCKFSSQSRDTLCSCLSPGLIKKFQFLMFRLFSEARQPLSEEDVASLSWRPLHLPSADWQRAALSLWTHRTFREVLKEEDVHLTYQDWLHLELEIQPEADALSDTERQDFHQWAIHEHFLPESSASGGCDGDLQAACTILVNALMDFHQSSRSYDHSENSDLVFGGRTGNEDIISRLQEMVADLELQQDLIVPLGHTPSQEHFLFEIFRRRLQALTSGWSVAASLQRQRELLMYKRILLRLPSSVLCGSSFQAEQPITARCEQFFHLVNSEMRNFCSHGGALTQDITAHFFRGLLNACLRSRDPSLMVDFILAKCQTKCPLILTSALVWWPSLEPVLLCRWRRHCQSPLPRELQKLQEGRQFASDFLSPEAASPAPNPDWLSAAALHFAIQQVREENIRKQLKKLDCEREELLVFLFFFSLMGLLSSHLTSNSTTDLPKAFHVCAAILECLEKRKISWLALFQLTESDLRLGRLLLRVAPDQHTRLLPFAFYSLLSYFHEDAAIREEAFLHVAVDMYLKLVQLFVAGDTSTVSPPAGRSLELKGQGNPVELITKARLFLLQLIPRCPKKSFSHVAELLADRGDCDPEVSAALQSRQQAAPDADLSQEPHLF"}}, "data": [{"variants_of": "B1", "settings": "with fance_human FANCE", "values": [{"variant": "MAQDSVDLSCDYQFWMQKLSVWDQASTLETQQDTCLHVAQFQEFLRKMYEALKEMDSNTVIERFPTIGQLLAKACWNPFILAYDESQKILIWCLCCLINKEPQNSGQSKLNSWIQGVLSHILSALRFDKEVALFTQGLGYAPIDYYPGLLKNMVLSLASELRENHLNGFNTQRRMAPERVASLSRVCVPLITLTDVDPLVEALLICHGREPQEILQPEFFEAVNEAILLKKISLPMSAVVCLWLRHLPSLEKAMLHLFEKLISSERNCLRRIECFIKDSSLPQAACHPAIFRVVDEMFRCALLETDGALEIIATIQVFTQCFVEALEKASKQLRFALKTYFPYTSPSLAMVLLQDPQDIPRGHWLQTLKHISELLREAVEDQTHGSCGGPFESWFLFIHFGGWAEMVAEQLLMSAAEPPTALLWLLAFYYGPRDGRQQRAQTMVQVKAVLGHLLAMSRSSSLSAQDLQTVAGQGTDTDLRAPAQQLIRHLLLNFLLWAPGGHTIAWDVITLMAHTAEITHEIIGFLDQTLYRWNRLGIESPRSEKLARELLKEPRTQV", "note": "[L554P]", "effect of a mutation on the interaction": "disrupting interaction"}]}, {"variants_of": "B2", "settings": "with fanca_human FANCA", "values": [{"variant": "L71P", "effect of a mutation on the interaction": "disrupting interaction"}]}]}
